Measurements from PMC5062252, “High-resolution crystal structure of the therapeutic antibody pembrolizumab bound to the human PD-1” (Scientific Reports, 2016).

Target: T1, extracellular domain of human PD-1 (PD-1ECD), residues 32-160, C93S (human, C93S (stands in the printed letters))
T1 construct: additional N-terminal residues retained after restriction site cloning; additional C-terminal residues retained after cloning and TEV cleavage; also called programmed cell death-1; CD279; not shown: His6, C-terminal, cleaved
T1 chain: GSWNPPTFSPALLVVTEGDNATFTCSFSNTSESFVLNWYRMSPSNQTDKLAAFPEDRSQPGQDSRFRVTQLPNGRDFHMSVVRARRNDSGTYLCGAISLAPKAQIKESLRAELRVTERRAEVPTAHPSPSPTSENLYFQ
Assay: SEC; analytical gel filtration of the PemFv/PD-1ECD complex; data not shown
Conditions: both partners purified

B1: Fv fragment of pembrolizumab (PemFv) (other)
VL: EIVLTQSPATLSLSPGERATLSCRASKGVSTSGYSYLHWYQQKPGQAPRLLIYLASYLESGVPARFSGSGSGTDFTLTISSLEPEDFAVYYCQHSRDLPLTFGGGTKVEIKTSENLYFQ
VH: QVQLVQSGVEVKKPGASVKVSCKASGYTFTNYYMYWVRQAPGQGLEWMGGINPSNGGTNFNEKFKNRVTLTTDSSTTTAYMELKSLQFDDTAVYYCARRDYRFDMGFDYWGQGTTVTVSS
notes: pembrolizumab light chain variable region (PemVL); additional C-terminal residues retained after TEV cleavage; pembrolizumab heavy chain variable region (PemVH); Fv fragment: VL and VH as two separate chains, not linked; also called pembrolizumab Fv; Keytruda; not shown: His6, C-terminal, cleaved; copies: 1 + 1
stoichiometry N: 1
